The labels stand for the following.
B1: CPEB3 Ribozyme (parent)
chain: GGGGGCCACAGCAGAAGCGUUCACGUCGCGGCCCCUGUCAGAUUCUGGUGAAUCUGCGAAUUCUGCUGU

The data set covers variants of B1. Put plainly: self-cleavage, relative activity (ratio to wild type); higher = more cleavage; co-transcriptional.
Turning to C33G A59C, the self-cleavage came out at 0.326.

For C33G U61A, the self-cleavage was 0.317.

On to C33G U61C, for which the self-cleavage was 0.341.

With C33G U61G, the self-cleavage amounted to 0.193.

For the variant C34A U64A, the self-cleavage came out at 0.794.

As for C34A U64C, the self-cleavage was determined as 0.728.

Consider C33U C39A, for which the self-cleavage came to 0.866.

On to C33A G47C, for which the self-cleavage was 0.946.

C33A G47A: the self-cleavage worked out at 0.925.

For C34A G50U, the self-cleavage turned out to be 0.8.

With C33G A42U, the self-cleavage was 0.556.

With C33G A60C, the self-cleavage came out at 0.415.

On to C33G A60U, for which the self-cleavage was 0.328.

In the case of C33G A60G, the self-cleavage worked out at 0.372.

In the case of C33G C45A, the self-cleavage came out at 0.47.

For the variant C33G C45G, the self-cleavage turned out to be 0.537.

Turning to C33G C45U, the self-cleavage came out at 0.641.

With C33A C35A, the self-cleavage worked out at 0.151.

Take C33A C35G: the self-cleavage came out at 0.204.

As for C33A C35U, the self-cleavage amounted to 0.442.

With C34G A59G, the self-cleavage was 0.538.

As for C34G A59U, the self-cleavage is 0.234.

Regarding C33A A60G, the self-cleavage came out at 0.378.

Turning to C33A A60U, the self-cleavage stood at 0.38.

In the case of C33G C63G, the self-cleavage worked out at 0.384.

In the case of C33G C63U, the self-cleavage was found to be 0.632.

Take C33A U36C: the self-cleavage came out at 0.785.

In the case of C33A U36G, the self-cleavage came to 0.256.

C33A U36A: the self-cleavage came out at 0.157.

For C34G C39A, the self-cleavage amounted to 0.394.

On to C33A U43G, for which the self-cleavage worked out at 0.361.

C33A U43C: the self-cleavage was 0.461.

Consider C34A A40G, for which the self-cleavage was found to be 0.788.

Turning to C34A A40U, the self-cleavage came out at 0.468.

Take C33U G41C: the self-cleavage was determined as 0.728.

In the case of C33U G41U, the self-cleavage came to 0.821.

Regarding C33A G65C, the self-cleavage is 0.529.

For the variant C33A C45U, the self-cleavage amounted to 0.799.

As to C33U U38G, the self-cleavage amounted to 0.215.

Take C33U U38C: the self-cleavage was found to be 0.899.

For the variant C33G U38A, the self-cleavage came to 0.582.

C33U A52C: the self-cleavage worked out at 0.978.

C34A U49A: the self-cleavage was found to be 0.867.

C34A U49C: the self-cleavage came to 0.79.

For the variant C34A U44C, the self-cleavage was determined as 0.724.

Take C34A U44G: the self-cleavage was 0.526.

For C32U U61C, the self-cleavage is 0.856.

As for C32U U61G, the self-cleavage turned out to be 0.829.

In the case of C32U U43G, the self-cleavage is 0.963.

Regarding C32U U43A, the self-cleavage turned out to be 0.933.

Take C32U U43C: the self-cleavage came to 0.947.

Turning to C34A U43G, the self-cleavage stood at 0.479.

As to C34A U43A, the self-cleavage amounted to 0.514.

As for C33G U46C, the self-cleavage is 0.783.

Take C33G U46G: the self-cleavage is 0.604.

C33U G47U: the self-cleavage is 0.985.

For the variant C33U G47C, the self-cleavage worked out at 0.969.

With C33U G47A, the self-cleavage was determined as 0.972.

C34A G37A: the self-cleavage was found to be 0.301.

For C34A G37U, the self-cleavage is 0.26.

For C32U U69G, the self-cleavage was determined as 1.03.

As to C32U U69C, the self-cleavage is 1.06.

With C33G C54G, the self-cleavage came to 0.338.

On to C33G C54U, for which the self-cleavage was determined as 0.727.

Consider C33U C34A, for which the self-cleavage amounted to 0.413.

Regarding C33U C34U, the self-cleavage amounted to 0.825.

Regarding C34G G41A, the self-cleavage was 0.318.

Consider C34G G41U, for which the self-cleavage was found to be 0.33.

For the variant C34G G41C, the self-cleavage worked out at 0.296.

As for C34A U36A, the self-cleavage stood at 0.229.

For C33A G56U, the self-cleavage was 0.756.

Consider C33A G56C, for which the self-cleavage was 0.488.

With C34G C54G, the self-cleavage was 0.343.

For C34G C54U, the self-cleavage came to 0.708.

Regarding C34G C54A, the self-cleavage was 0.368.

With C32U U53A, the self-cleavage amounted to 0.982.

Take C32U U53G: the self-cleavage is 0.967.

Turning to C34A G68C, the self-cleavage came to 0.954.

C34A G68U: the self-cleavage worked out at 0.956.

As for C34A G68A, the self-cleavage stood at 0.935.

With C33A G41A, the self-cleavage turned out to be 0.349.

Take C33A G41U: the self-cleavage is 0.562.

For C33G U49C, the self-cleavage is 0.645.

Turning to C33G U49A, the self-cleavage turned out to be 0.748.

For the variant C33U C57U, the self-cleavage came to 0.345.

Take C33A G68A: the self-cleavage was 0.951.

On to C33A G68U, for which the self-cleavage is 0.904.

For C33G G37A, the self-cleavage is 0.299.

In the case of C33G G37U, the self-cleavage came out at 0.245.

On to C33A A51G, for which the self-cleavage stood at 0.7.

On to C33A A51C, for which the self-cleavage was determined as 0.366.

For the variant C33A A51U, the self-cleavage was found to be 0.46.

Regarding C33U A60U, the self-cleavage is 0.505.

C33U A60G: the self-cleavage is 0.814.

Turning to C32U G58A, the self-cleavage was found to be 0.983.

For the variant C32U G68U, the self-cleavage stood at 1.02.

On to C32U G68A, for which the self-cleavage came out at 0.977.

C32U G68C: the self-cleavage worked out at 1.02.

Take C33U C66G: the self-cleavage was 0.921.

Turning to C33G A51G, the self-cleavage stood at 0.739.

Regarding C33G A51U, the self-cleavage turned out to be 0.415.

As to C34A U69A, the self-cleavage came to 0.971.

In the case of C34A U69G, the self-cleavage amounted to 0.947.

Regarding C32U G65C, the self-cleavage was 0.778.

In the case of C32U G65A, the self-cleavage was determined as 0.988.

Take C33A C63G: the self-cleavage is 0.513.

On to C33U G65U, for which the self-cleavage is 0.749.

Take C33U U36G: the self-cleavage is 0.295.

For the variant C33U U36C, the self-cleavage turned out to be 0.874.

Regarding C33U G68C, the self-cleavage is 1.02.

C34A U61A: the self-cleavage turned out to be 0.466.

For C34A U61C, the self-cleavage is 0.432.

Turning to C33A U44C, the self-cleavage amounted to 0.656.

Take C33A U44A: the self-cleavage worked out at 0.313.

With C33A U44G, the self-cleavage was 0.374.

Consider C34G A52U, for which the self-cleavage is 0.661.

For the variant C33G U53A, the self-cleavage is 0.395.

For the variant C33G U53G, the self-cleavage was 0.32.

C33G C57G: the self-cleavage was 0.259.

For C33G C57U, the self-cleavage amounted to 0.316.

As to C33G C57A, the self-cleavage stood at 0.38.

For the variant C32U U46C, the self-cleavage was determined as 1.

As to C32U U46A, the self-cleavage was 1.

As for C32U U46G, the self-cleavage is 0.951.

For C34G A42C, the self-cleavage is 0.317.

For C32U U49A, the self-cleavage amounted to 1.01.

As for C33G G58U, the self-cleavage was found to be 0.821.

With C33G G58C, the self-cleavage is 0.703.

Take C33G G56C: the self-cleavage was 0.326.

Take C33G U36A: the self-cleavage was 0.13.

On to C33G U36G, for which the self-cleavage is 0.25.

As for C32U U62G, the self-cleavage is 0.864.

As to C33U U55A, the self-cleavage stood at 0.965.

On to C33U U44G, for which the self-cleavage was determined as 0.945.

As to C33U U64A, the self-cleavage amounted to 0.919.

As for C33U U64G, the self-cleavage is 0.941.

As for C33U U64C, the self-cleavage worked out at 0.92.

With C33G A40U, the self-cleavage was 0.273.

Turning to C33G A40C, the self-cleavage came out at 0.324.

Turning to C34G C63G, the self-cleavage turned out to be 0.338.

For C32U U64G, the self-cleavage was 1.01.

Consider C33U A42G, for which the self-cleavage is 0.916.

With C33U A42U, the self-cleavage was 0.953.

Regarding C33U A42C, the self-cleavage turned out to be 0.793.

Regarding C33G U69G, the self-cleavage was 0.899.

As to C33G U69A, the self-cleavage was 0.82.

For C33G U44G, the self-cleavage stood at 0.333.

On to C33G U44C, for which the self-cleavage came out at 0.576.

In the case of C33A U38G, the self-cleavage was determined as 0.212.

Regarding C33G G41U, the self-cleavage was 0.268.

Consider C33U U49G, for which the self-cleavage was found to be 0.996.

In the case of C33U U49A, the self-cleavage turned out to be 0.97.

For the variant C33U U49C, the self-cleavage came to 1.02.

Turning to C34G C66G, the self-cleavage is 0.434.

In the case of C32U U55A, the self-cleavage is 0.989.

For the variant C32U U55G, the self-cleavage worked out at 0.896.

For the variant C33G G68A, the self-cleavage amounted to 0.922.

On to C34A G56U, for which the self-cleavage is 0.679.

For C34A G56C, the self-cleavage was 0.438.

Turning to C33A A59C, the self-cleavage is 0.322.

For the variant C33U G37C, the self-cleavage is 0.242.

With C33U G37A, the self-cleavage turned out to be 0.265.

As for C33U U46A, the self-cleavage worked out at 0.98.

For C33U U46G, the self-cleavage was 0.979.

As to C33U U46C, the self-cleavage was 0.977.

On to C33U C63G, for which the self-cleavage was determined as 0.82.

Turning to C33U C63A, the self-cleavage was 0.795.

For the origin of these results see the RNAGym collection of RNA variant scans (doi:10.7554/elife.80360).
